In the supplement of paper PMC12042874 one finds amyloid nucleation score data, which are given here for 140 substances.

± gives the uncertainty stated by the source.

The nature of this series: amyloid nucleation score (Sup35N fusion, yeast selection) (log enrichment); library NNK1; higher = more nucleation; inactive = no reads after selection. The method, boiled down:
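Psi-negative yeast expressed Sup35N fused to peptides of 20 random codons. They were induced 24 hours with 100 μM copper sulfate, grown 7 days at 30°C without adenine and uracil, and their plasmid inserts from input and output were Illumina-sequenced. The nucleation score is the DiMSum log enrichment of output over input reads, centred on the mode score of non-aggregating sequences. Sequences with under 100 input reads were excluded.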
As to DPTTLYIEV, the amyloid nucleation score amounted to 1.29 ± 0.39. The result for DPVSIMTGRQDPRGCGVTCF reads -1.96 ± 2.7; that for DPVYGLYGALFAMNPFMDYL, -0.427 ± 0.56.

For DQGSWFH, the amyloid nucleation score is -0.31 ± 1.1. On to DQNVAPYVSKHGVQTILKRD, for which the amyloid nucleation score is -1.51 ± 1.9. DQSILRLYAWALRPGELELR displayed an amyloid nucleation score of 3.15 ± 0.14. DRFVVVLCFTDQ: the amyloid nucleation score worked out at 0.452 ± 0.46. The result for DRIFDHGIHMFSIVGQDLFT reads “inactive”; that for DRLWIWQGNIVASIYKSCLL, 5.41 ± 0.068; that for DRRSIAGFHCCWNSKVMVSP, -0.83 ± 0.88.

Regarding DRVWCHETKRSFYIMCKNNI, the amyloid nucleation score came out at 0.052 ± 0.24. Take DRYVYEFSYVLFWLFILVM: the amyloid nucleation score is 0.128 ± 0.44.

Take DSELRMVISLYFCWLWSEWS: the amyloid nucleation score was -0.623 ± 0.6.

The substance DSGLLMKVSWKSDNC came in with an amyloid nucleation score of -0.284 ± 0.39.

For DSNATTHVRMKVSLTGRFLR, the amyloid nucleation score amounted to 4.8 ± 0.056. Then DSNPNFCRLIKYVRNDCRTP, with 0.012 ± 0.26.

DSPGSSGCKGATVHMSFTWG: the amyloid nucleation score was 0.731 ± 0.61.

For DSQFAVKFCAR, the amyloid nucleation score entry was “inactive”.

Substance DSRDVNSSLIIRVRVEDGTL displayed an amyloid nucleation score of -1.2 ± 1.5. Then DSVLLRFYDCCEMFYLHSLL, with 0.48 ± 0.67; and DTFCQL, with -0.147 ± 1.1. The result for DTLVDVVFDADVV reads 0.26 ± 0.28; that for DTNFYLFMTHG, 0.244 ± 1. Then DTPRCRGVS, with -0.197 ± 1.2; and DTSFYIMLNYITIQYNSFAG, with 7.86 ± 0.054; and DTSNHEGE, with -0.554 ± 1.7. For DTVVGSAFCQGMYLSESVML, the amyloid nucleation score worked out at 1.56 ± 0.76.

Consider DVANRVVSSFLIC, for which the amyloid nucleation score was -0.525 ± 0.45. Then DVAYRGSGYGFSYFYFGMFS, with 0.547 ± 0.5; and DVCASGRKIVRFFPMSARAQ, with “inactive”; and DVDYLYPLYLVAGFMTNVRK, with 0.535 ± 0.25. For the substance DVGLFMK, the amyloid nucleation score was -0.686 ± 0.53. Then DVKFVVFSNRAWVCTSASKW, with 4.01 ± 0.11; and DVLLFL, with -0.779 ± 1.3.

As to DVMAVCGIGRKYLIWYSCVR, the amyloid nucleation score was -1.54 ± 0.79.

Substance DVMLNCCGYCAPGGWVVVFS registered an amyloid nucleation score of 5.33 ± 0.089. The result for DVRAWVMARVGRGSELGARG reads 0.075 ± 0.84. The result for DVRLRRYEGGQSSVTSHHDN reads 0.028 ± 0.53; that for DVTAPRLQIGLKVKHMKPFF, 0.423 ± 0.42. On to DWAGMCFANSIHMDMLDRVL, for which the amyloid nucleation score was found to be 0.336 ± 0.4. DWQMMVYRNAFLPR had an amyloid nucleation score of -1.32 ± 1.3. As for DYLVQGLHILVKWGYDRTDG, the amyloid nucleation score was -0.187 ± 0.5. The result for DYRLKLLYYSSWSVLLYFVG reads -0.142 ± 0.21; that for DYRYTNCCWQSPKRRGWQSY, 0.967 ± 0.59.

Take DYVYHKAWKVKGTRAWKESL: the amyloid nucleation score is -0.266 ± 1.4. The result for EAGLCSK reads -0.316 ± 0.45; that for ECDRCYSYGCVDHKAALG, 0.629 ± 0.72. Consider ECTCSIK, for which the amyloid nucleation score is 0.03 ± 0.22. Then ECVTCSWF, with 0.011 ± 0.38; and EDCIWYVVGH, with -2.18 ± 2.4. Then EDEYQDPTTGVIHVVMGTCV, with 0.044 ± 1.1; and EDMPFMTLKVIVFVTLMHLR, with 2.02 ± 0.62. On to EDMWNFDRSHGLWYEGTSAM, for which the amyloid nucleation score came out at 0.72 ± 0.69. The result for EEDII reads 1.96 ± 0.26; that for EEPLIGLDKMPYPGTVYEIA, 0.066 ± 0.87; that for EERRMSWWFERGCKLAVELS, -0.614 ± 0.8. The substance EFGRGSNRVEFIMGASLALT displayed an amyloid nucleation score of 1.09 ± 0.17. Substance EFIGFRLFIQVNSDFM showed an amyloid nucleation score of 1.69 ± 0.23. EFLDELSGVVYSLLGYEVTR displayed an amyloid nucleation score of 2.63 ± 0.13. EFNDCGSLWFGFIRYIILMN came in with an amyloid nucleation score of 0.081 ± 0.25. EFTRRAYYDRNAQLFHMDQC showed an amyloid nucleation score of 2.19 ± 0.18. The result for EGATWIFQYLAGGVG reads -0.534 ± 0.34. As for EGICNYSSKYCQGMVLIGSS, the amyloid nucleation score is -1.52 ± 1.5. Then EGMFFRGSLSK, with 3.31 ± 0.16; and EGNLVLSMLMY, with -0.198 ± 0.47; and EGVHNSRKVEPGVKFGSGAR, with 0.621 ± 1. The result for EHLISYATYEVLVSTWNSFE reads “inactive”.

Turning to EHWSRSVGSHASVWFVAPAG, the amyloid nucleation score entry is “inactive”.

Substance EICYRMICCYSN returned an amyloid nucleation score of 0.085 ± 0.66. Then EINKLS, with -1.27 ± 1.1; and EIRQVECLTCMRQ, with -0.839 ± 1.2. Substance EKGKLCKG returned an amyloid nucleation score of -0.101 ± 0.84. The result for EKMHQSYLSRYYIDR reads 1.12 ± 0.54; that for EKNYRICGFMGLLLFRIE, “inactive”; that for ELDNCARLGADCKGLNAGRS, “inactive”. ELFASTCGFYALHRLGSRPG registered an amyloid nucleation score of 3.04 ± 0.092. For the substance ELMCFQQFKWKAMTYKWNGI, the amyloid nucleation score worked out at 0.337 ± 0.54. For the substance ELSLRSSISVGEPVRDP, the amyloid nucleation score came to 1.14 ± 0.6.

For ELSVRPCRVLYEHCGYRCEQ, the amyloid nucleation score was found to be 0.196 ± 0.49. Then ELTNTFTV, with -0.335 ± 0.37; and ELVSVGLSAIHSSDYNFSFN, with 0.45 ± 0.7.

In turn, EMHFR yielded an amyloid nucleation score of 0.024 ± 0.65. EMKATIHLMLKINNTWFSVP had an amyloid nucleation score of 2.07 ± 0.11. As for EMWRYRRVGIPRLA, the amyloid nucleation score was 0.358 ± 0.92.

ENDVLELFRFSLCLCHRPGG: the amyloid nucleation score entry is “inactive”. The result for ENGLFKF reads 0.695 ± 0.32.

The substance ENSPLK had an amyloid nucleation score of 0.493 ± 0.4. The result for ENTLRSYRLGHKVEWLMELG reads -0.363 ± 0.39. Then EPYLISEFRRT, with -0.364 ± 0.47; and EQPGVHYQNQFYKHVLYNAS, with 0.587 ± 0.38; and EQTCVVGPQE, with 0.397 ± 1. Consider ERAPASSMGSWYGIGKGNAV, for which the amyloid nucleation score is -0.061 ± 1.1.

Turning to ERFCQGSCCNNFMGVFIRES, the amyloid nucleation score turned out to be 5.68 ± 0.077. ERNRHKVIMFMTSPWEMVIL returned an amyloid nucleation score of -1.06 ± 2.4.

On to ERVAQKILHLKSMPITARPV, for which the amyloid nucleation score came to 0.002 ± 1.1. With ERYPCDALDVDLRLTLCRKG, the amyloid nucleation score was found to be 0.222 ± 0.48. As to ESHVWELDLGSWSRFGWRSR, the amyloid nucleation score came to 2.62 ± 0.11.

On to ESKVSGIVIFGGVEIAFYRG, for which the amyloid nucleation score was 5.22 ± 0.1. Then ESNVWICAPPTDPWAIQTLR, with -0.149 ± 0.51; and ESTGQFYSPGSWVQGWTAYM, with 0.398 ± 0.66. Substance ESYSYQGCFATYLQQNTWCT returned an amyloid nucleation score of -0.008 ± 0.28. ETRTSTETRPCKLWFYDRM yielded an amyloid nucleation score of -0.718 ± 1.2. The result for ETSVRMVFFVKRLTGYMNLR reads -0.277 ± 0.33. The result for EVPSMRVNAPLKV reads “inactive”. The result for EVVQMVFIFFRCSLVDGKEW reads 0.405 ± 0.72; that for EVYCIDVGDLSVSGKFDRSL, 1.54 ± 0.4.

EWGANYVGVDCSLVVRRQDV showed an amyloid nucleation score of 0.497 ± 0.93. EWLDALKANTIFYWKYGSMI returned an amyloid nucleation score of 0.496 ± 0.63. Substance EWTSCMPLAFMLPLVILSFA returned an amyloid nucleation score of 0.532 ± 0.7. Then EYFLSQYRKFTGYFVVITAT, with 1.47 ± 0.76; and EYFMRGLLWLI, with 0.795 ± 0.39. Then EYLCLI, with 0.147 ± 0.45. For the substance EYLSA, the amyloid nucleation score worked out at 0.403 ± 0.55. The result for EYVMIRHAVLIKMFSMLKRV reads -0.577 ± 0.45; that for FACTTSFSFMRWLRN, 0.903 ± 0.46; that for FAELRFFCCDS, 2.45 ± 0.21.

The substance FAFIDMHKGC displayed an amyloid nucleation score of 1.69 ± 0.17.

The substance FAPRSLGFYMNFFPRMMGQR returned an amyloid nucleation score of -0.88 ± 1.5. The result for FASARQLMQTTDKHSVWYVV reads -1.87 ± 1.8; that for FASKRWLWSVEQLSRLSNGT, -0.087 ± 0.21; that for FASVTTIFFPSPLFFDIRWD, 1.09 ± 0.79. Then FATQTVAACVQCLKTRSDVF, with 0.029 ± 1.1; and FCAGGMGNCKCWLCFLRSTM, with -1.33 ± 0.7. Then FCEWYLTDDFFYSLCFFFNE, with 0.031 ± 0.55; and FCILFSLIVTVGSLLRFLYR, with 2.01 ± 0.1; and FCLVMEFM, with 0.606 ± 0.4. In the case of FCPPYLSHNNYYWLLVRVFV, the amyloid nucleation score is 0.322 ± 0.37. Then FCSKTFL, with 1.35 ± 0.46; and FCWVGQNEWCRHLFELCLER, with 0.517 ± 0.63. On to FDDFHESARTGFNGKERSQM, for which the amyloid nucleation score was 1.01 ± 0.19. Then FDGCNTKGNMSFAWSRPLGM, with 0.246 ± 0.97; and FDNVVGYNGFMDGPGYLLYT, with -0.16 ± 0.25. The result for FDPCYTHALWLFGDVKARCM reads -0.083 ± 0.37; that for FDRRLCFVG, 0.024 ± 0.52; that for FDRWFRQGNGLVV, 0.225 ± 0.78. The substance FDSVHLRRSR yielded an amyloid nucleation score of 0.701 ± 0.43. The result for FEDIRYDRKVWGICALSNCA reads 0.814 ± 0.47; that for FEKRALVSDSFYCNGVSRV, 0.082 ± 0.24; that for FELQEYCFD, 0.923 ± 0.5. The result for FETDNIDPHGYSFEYDASPA reads -0.25 ± 0.43.
